Experimental findings from paper PMC7826288, “Dynamics of TRF1 organizing a single human telomere” (Nucleic Acids Research, 2020) are described below.

For data set [1], the target named is T1, TRF1 (human, UniProt P54274). Kind of data set: single-molecule magnetic tweezers. The note with it: delta-delta G of fork opening with vs without 10 nM TRF1 (61 vs 50 kBT); 20 mM HEPES pH 7.5, 100 mM NaCl, 1 mM EDTA, 0.0063% Tween-20; EMSA 30 min on ice, 5% PAGE in 1x TBE at 4 C; magnetic tweezers at 23 C. A general note: A gel shift assay detects complexes by their altered migration in electrophoresis.

In data set [2] the target is T1, TRF1. The data set is described as follows: EMSA; dimer concentration; Hill fit; 10 nM DNA, n=3; 20 mM HEPES pH 7.5, 100 mM NaCl, 1 mM EDTA, 0.0063% Tween-20; EMSA 30 min on ice, 5% PAGE in 1x TBE at 4 C; magnetic tweezers at 23 C. The note with it: protein: recombinant; tags: trx tag (modified pET32a, Ni-NTA) removed with 3C protease; chain copies: 2; label: FAM on strand 2 (printed as FAM-CTAACCC..., 5'); blunt.

T1 sequence (P54274 3-439): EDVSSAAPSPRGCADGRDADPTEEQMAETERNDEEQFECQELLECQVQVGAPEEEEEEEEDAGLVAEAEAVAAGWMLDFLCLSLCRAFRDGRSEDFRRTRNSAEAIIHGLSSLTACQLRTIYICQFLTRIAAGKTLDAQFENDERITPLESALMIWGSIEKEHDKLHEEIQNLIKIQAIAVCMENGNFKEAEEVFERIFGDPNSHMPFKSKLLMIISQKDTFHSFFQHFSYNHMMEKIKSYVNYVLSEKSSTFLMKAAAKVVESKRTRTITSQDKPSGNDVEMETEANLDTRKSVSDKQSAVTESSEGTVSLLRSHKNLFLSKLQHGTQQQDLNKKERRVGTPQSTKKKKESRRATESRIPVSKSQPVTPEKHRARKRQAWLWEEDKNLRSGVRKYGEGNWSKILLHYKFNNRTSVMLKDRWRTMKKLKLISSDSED

In data set [1], “short telomeric hairpin (13 TTAGGG repeats)” registered a binding signal of 11 kBT.

B1: telomeric dsDNA (two TTAGGG sites) (dsDNA)
DNA 1: GTTAGGGTTAGGGTTAG
DNA 2: CTAACCCTAACCCTAAC
With B1, the dissociation constant Kd in data set [2] stood at 17.5 ± 0.7 nM.

What is called Kd is the constant that tells how readily two partners part at equilibrium.
